# Assay results taken from US20050170334A1.
# Target: M2 peptide (extracellular 23-amino-acid M2 peptide) (influenza A virus)
# Assay: ELISA, peptide coated, antibody 10 µg/ml
substance,measurement,value
mouse anti-M2 antibody 14C2,ELISA (OD450),1.97 OD450
